Measured values taken from PMC10786891, “Massively parallel profiling of RNA-targeting CRISPR-Cas13d”.
Numbering of substitutions follows the chain as printed. Numbers in names are those of the source.

T1: EsCas13d, nuclease-dead (Eubacterium siraeum, UniProt B0MS50, R295A;H300A;R849A;H854A)
T1 sequence: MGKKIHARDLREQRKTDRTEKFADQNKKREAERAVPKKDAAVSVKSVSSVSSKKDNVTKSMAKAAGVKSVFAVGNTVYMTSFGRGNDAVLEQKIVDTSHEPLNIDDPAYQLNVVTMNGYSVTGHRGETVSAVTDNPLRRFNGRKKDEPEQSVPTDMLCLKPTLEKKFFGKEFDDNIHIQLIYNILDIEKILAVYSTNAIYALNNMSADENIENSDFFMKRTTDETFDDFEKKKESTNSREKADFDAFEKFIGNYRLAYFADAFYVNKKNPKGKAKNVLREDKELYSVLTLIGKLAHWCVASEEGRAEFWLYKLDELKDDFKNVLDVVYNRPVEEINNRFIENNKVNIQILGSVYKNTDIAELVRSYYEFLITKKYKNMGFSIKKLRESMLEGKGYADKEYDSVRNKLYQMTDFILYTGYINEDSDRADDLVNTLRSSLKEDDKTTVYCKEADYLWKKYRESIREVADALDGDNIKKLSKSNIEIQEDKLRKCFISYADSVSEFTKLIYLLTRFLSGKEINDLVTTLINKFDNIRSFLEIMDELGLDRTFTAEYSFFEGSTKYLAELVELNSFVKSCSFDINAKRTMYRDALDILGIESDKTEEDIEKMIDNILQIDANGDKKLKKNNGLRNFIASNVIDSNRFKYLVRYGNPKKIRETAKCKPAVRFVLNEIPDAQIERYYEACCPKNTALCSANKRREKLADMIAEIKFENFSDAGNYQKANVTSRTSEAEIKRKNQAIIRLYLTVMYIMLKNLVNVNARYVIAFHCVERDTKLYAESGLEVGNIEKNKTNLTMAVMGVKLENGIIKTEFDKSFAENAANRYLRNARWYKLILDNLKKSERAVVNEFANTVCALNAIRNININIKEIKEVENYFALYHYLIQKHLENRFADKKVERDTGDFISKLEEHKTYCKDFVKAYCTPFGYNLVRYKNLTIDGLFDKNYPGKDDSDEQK

B1: target 1 insC 3' of 22 (mixed)
RNA 1: CACCCGUGCAAAAAUGCAGGGGUCUAAAACUGAGCGGAUAACCUCUCUAUGG
RNA 2: GGGAAUGGAUCCACAUCUACGAAUUCGUACCCAUAGAGAGGUUAUCCGCUCACCGAGAUCGGAAGAGCACACGU
B2: target 1 insG 3' of 16,insU 3' of 4 (mixed)
RNA 1: B1 RNA 1
RNA 2: GGGAAUGGAUCCACAUCUACGAAUUCGUACCAUAGAGGAGGUUAUCCGCUUCACCGAGAUCGGAAGAGCACACGU
B3: target 1 G12A,G13C (mixed)
RNA 1: B1 RNA 1
RNA 2: GGGAAUGGAUCCACAUCUACGAAUUCGUACCAUAGAGACAUUAUCCGCUCACCGAGAUCGGAAGAGCACACGU
B4: target 1 complement block 1-3 (mixed)
RNA 1: B1 RNA 1
RNA 2: B3 RNA 2 with C39G, A40G, U49A, C50G, A51U
B5: target 1 insA 3' of 22,insU 3' of 12 (mixed)
RNA 1: B1 RNA 1
RNA 2: GGGAAUGGAUCCACAUCUACGAAUUCGUACACAUAGAGAGGUUUAUCCGCUCACCGAGAUCGGAAGAGCACACGU
B6: target 1 C6U,A14G (mixed)
RNA 1: B1 RNA 1
RNA 2: B3 RNA 2 with A38G, C39G, A40G, C46U
B7: target 1 del9,del20 (mixed)
RNA 1: B1 RNA 1
RNA 2: GGGAAUGGAUCCACAUCUACGAAUUCGUACCUAGAGAGGUUUCCGCUCACCGAGAUCGGAAGAGCACACGU
B8: target 1 U3G,U8C (mixed)
RNA 1: B1 RNA 1
RNA 2: B3 RNA 2 with C39G, A40G, U44C, U49G
B9: target 1 insA 3' of 6,insA 3' of 2 (mixed)
RNA 1: B1 RNA 1
RNA 2: B2 RNA 2 with G38A, A39G, G41U, U43A, A44U, U45C, C47A, U51C, C52A
B10: target 1 C2A,U10G (mixed)
RNA 1: B1 RNA 1
RNA 2: B3 RNA 2 with C39G, A40G, U42G, C50A
B11: target 1 U3C,U10C (mixed)
RNA 1: B1 RNA 1
RNA 2: B3 RNA 2 with C39G, A40G, U42C, U49C
B12: target 1 insG 3' of 19,insG 3' of 2 (mixed)
RNA 1: B1 RNA 1
RNA 2: B2 RNA 2 with A34G, G35A, A36G, G37A, U51C, C52G
B13: target 1 del6,del7 (mixed)
RNA 1: B1 RNA 1
RNA 2: GGGAAUGGAUCCACAUCUACGAAUUCGUACCAUAGAGAGGUUAUGCUCACCGAGAUCGGAAGAGCACACGU
B14: target 1 G12A,C21U (mixed)
RNA 1: B1 RNA 1
RNA 2: B3 RNA 2 with C31U, C39G
B15: target 1 U8A,U11A (mixed)
RNA 1: B1 RNA 1
RNA 2: B3 RNA 2 with C39G, A40G, U41A, U44A
B16: target 1 insA 3' of 11,insA 3' of 3 (mixed)
RNA 1: B1 RNA 1
RNA 2: B2 RNA 2 with G38A, A39G, G41U, U42A, U51A
B17: target 1 insA 3' of 19,insA 3' of 8 (mixed)
RNA 1: B1 RNA 1
RNA 2: B5 RNA 2 with A31C, C32A, A33U, U34A, U44A, A45U, U46A
B18: target 1 insC 3' of 15,insC 3' of 8 (mixed)
RNA 1: B1 RNA 1
RNA 2: B2 RNA 2 with G38C, G48C, C49G, U50C
B19: target 1 U3G,C6A (mixed)
RNA 1: B1 RNA 1
RNA 2: B3 RNA 2 with C39G, A40G, C46A, U49G
B20: target 1 C7U,U8G (mixed)
RNA 1: B1 RNA 1
RNA 2: B3 RNA 2 with C39G, A40G, U44G, C45U
B21: target 1 C2G,U3A (mixed)
RNA 1: B1 RNA 1
RNA 2: B3 RNA 2 with C39G, A40G, U49A, C50G
B22: target 1 insC 3' of 20,insU 3' of 12 (mixed)
RNA 1: B1 RNA 1
RNA 2: B5 RNA 2 with A31C, C32A, A33C
B23: target 1 insG 3' of 11,insG 3' of 3 (mixed)
RNA 1: B1 RNA 1
RNA 2: B2 RNA 2 with G38A, A39G, G41U, U42G, U51G
B24: target 1 U8C,G13A (mixed)
RNA 1: B1 RNA 1
RNA 2: B3 RNA 2 with C39A, A40G, U44C
B25: target 1 A1G,A20C (mixed)
RNA 1: B1 RNA 1
RNA 2: B3 RNA 2 with A32C, C39G, A40G, A51G
B26: target 1 insA 3' of 8,insC 3' of 3 (mixed)
RNA 1: B1 RNA 1
RNA 2: B2 RNA 2 with G38A, A39G, G41U, U43A, A44U, U45A, U51C
B27: target 1 insU 3' of 22,insC 3' of 15 (mixed)
RNA 1: B1 RNA 1
RNA 2: B5 RNA 2 with A31U, A39C, G40A, U42G
B28: target 1 insG 3' of 6,insU 3' of 1 (mixed)
RNA 1: B1 RNA 1
RNA 2: GGGAAUGGAUCCACAUCUACGAAUUCGUACCAUAGAGAGGUUAUCCGGCUCAUCCGAGAUCGGAAGAGCACACGU
B29: target 1 G13A,A20U (mixed)
RNA 1: B1 RNA 1
RNA 2: B3 RNA 2 with A32U, C39A, A40G
B30: target 1 insA 3' of 6,insG 3' of 1 (mixed)
RNA 1: B1 RNA 1
RNA 2: B28 RNA 2 with G47A, U53G
B31: target 1 insU 3' of 5,insG 3' of 2 (mixed)
RNA 1: B1 RNA 1
RNA 2: B28 RNA 2 with G48U, A52G, U53A
B32: target 1 insG 3' of 8,insU 3' of 4 (mixed)
RNA 1: B1 RNA 1
RNA 2: B28 RNA 2 with C45G, G47C, C51U, A52C, U53A
B33: target 1 insC 3' of 10,insA 3' of 4 (mixed)
RNA 1: B1 RNA 1
RNA 2: B2 RNA 2 with G38A, A39G, G41U, U43C, U50A
B34: target 1 C2U,G15C (mixed)
RNA 1: B1 RNA 1
RNA 2: B3 RNA 2 with G37C, C39G, A40G, C50U

Target: T1, EsCas13d, nuclease-dead
Test: crRNA (strand 1, pre-loaded); Mg2+; 40 mM Tris-HCl pH 7.5, 150 mM NaCl, 6 mM MgCl2, 1 mM DTT, 0.1% Tween-20, 0.2 mg/ml BSA; 25 C; 10 min per concentration, then washed
Conditions: tags: His6-TwinStrep-SUMO cleaved; N-terminal SNAP kept (SNAP-Surface 488); label: 3' end held by stalled T7 RNA polymerase

| Binder | Kd [µM] |
| --- | --- |
| B1 | 0.0147 ± 0.0009 |
| B2 | 0.0139 ± 0.0006 |
| B3 | ~0.09 |
| B4 | 0.007 ± 0.0005 |
| B5 | 0.0115 ± 0.0011 |
| B6 | 0.0142 ± 0.0007 |
| B7 | 0.052 ± 0.007 |
| B8 | 0.0072 ± 0.00033 |
| B9 | 0.0187 ± 0.0013 |
| B10 | 0.028 ± 0.0019 |
| B11 | 0.051 ± 0.009 |
| B12 | 0.099 ± 0.026 |
| B13 | 0.0114 ± 0.0007 |
| B14 | 0.0078 ± 0.0005 |
| B15 | 0.0268 ± 0.0019 |
| B16 | 0.014 ± 0.0007 |
| B17 | 0.0311 ± 0.0027 |

| Binder | Kd [µM] |
| --- | --- |
| B18 | 0.0262 ± 0.0028 |
| B19 | 0.0063 ± 0.0004 |
| B20 | 0.0142 ± 0.001 |
| B21 | 0.0134 ± 0.0013 |
| B22 | 0.00619 ± 0.00032 |
| B23 | 0.042 ± 0.007 |
| B24 | 0.061 ± 0.012 |
| B25 | 0.041 ± 0.004 |
| B26 | 0.0158 ± 0.0006 |
| B27 | 0.067 ± 0.014 |
| B28 | 0.0178 ± 0.0023 |
| B29 | 0.0145 ± 0.0022 |
| B30 | 0.016 ± 0.0012 |
| B31 | 0.0091 ± 0.0005 |
| B32 | 0.00944 ± 0.00034 |
| B33 | 0.0155 ± 0.0026 |
| B34 | 0.049 ± 0.005 |
